# Experimental data taken from IntAct's records for PubMed 33758649.
# B1: Protein PALS1 (Homo sapiens), Q8N3R9 (parent)
# chain: MTTSHMNGHVTEESDSEVKNVDLASPEEHQKHREMAVDCPGDLGTRMMPIRRSAQLERIRQQQEDMRRRREEEGKKQELDLNSSMRLKKLAQIPPKTGIDNPMFDTEEGIVLESPHYAVKILEIEDLFSSLKHIQHTLVDSQSQEDISLLLQLVQNKDFQNAFKIHNAITVHMNKASPPFPLISNAQDLAQEVQTVLKPVHHKEGQELTALLNTPHIQALLLAHDKVAEQEMQLEPITDERVYESIGQYGGETVKIVRIEKARDIPLGATVRNEMDSVIISRIVKGGAAEKSGLLHEGDEVLEINGIEIRGKDVNEVFDLLSDMHGTLTFVLIPSQQIKPPPAKETVIHVKAHFDYDPSDDPYVPCRELGLSFQKGDILHVISQEDPNWWQAYREGDEDNQPLAGLVPGKSFQQQREAMKQTIEEDKEPEKSGKLWCAKKNKKKRKKVLYNANKNDDYDNEEILTYEEMSLYHQPANRKRPIILIGPQNCGQNELRQRLMNKEKDRFASAVPHTTRSRRDQEVAGRDYHFVSRQAFEADIAAGKFIEHGEFEKNLYGTSIDSVRQVINSGKICLLSLRTQSLKTLRNSDLKPYIIFIAPPSQERLRALLAKEGKNPKPEELREIIEKTREMEQNNGHYFDTAIVNSDLDKAYQELLRLINKLDTEPQWVPSTWLR
# partner: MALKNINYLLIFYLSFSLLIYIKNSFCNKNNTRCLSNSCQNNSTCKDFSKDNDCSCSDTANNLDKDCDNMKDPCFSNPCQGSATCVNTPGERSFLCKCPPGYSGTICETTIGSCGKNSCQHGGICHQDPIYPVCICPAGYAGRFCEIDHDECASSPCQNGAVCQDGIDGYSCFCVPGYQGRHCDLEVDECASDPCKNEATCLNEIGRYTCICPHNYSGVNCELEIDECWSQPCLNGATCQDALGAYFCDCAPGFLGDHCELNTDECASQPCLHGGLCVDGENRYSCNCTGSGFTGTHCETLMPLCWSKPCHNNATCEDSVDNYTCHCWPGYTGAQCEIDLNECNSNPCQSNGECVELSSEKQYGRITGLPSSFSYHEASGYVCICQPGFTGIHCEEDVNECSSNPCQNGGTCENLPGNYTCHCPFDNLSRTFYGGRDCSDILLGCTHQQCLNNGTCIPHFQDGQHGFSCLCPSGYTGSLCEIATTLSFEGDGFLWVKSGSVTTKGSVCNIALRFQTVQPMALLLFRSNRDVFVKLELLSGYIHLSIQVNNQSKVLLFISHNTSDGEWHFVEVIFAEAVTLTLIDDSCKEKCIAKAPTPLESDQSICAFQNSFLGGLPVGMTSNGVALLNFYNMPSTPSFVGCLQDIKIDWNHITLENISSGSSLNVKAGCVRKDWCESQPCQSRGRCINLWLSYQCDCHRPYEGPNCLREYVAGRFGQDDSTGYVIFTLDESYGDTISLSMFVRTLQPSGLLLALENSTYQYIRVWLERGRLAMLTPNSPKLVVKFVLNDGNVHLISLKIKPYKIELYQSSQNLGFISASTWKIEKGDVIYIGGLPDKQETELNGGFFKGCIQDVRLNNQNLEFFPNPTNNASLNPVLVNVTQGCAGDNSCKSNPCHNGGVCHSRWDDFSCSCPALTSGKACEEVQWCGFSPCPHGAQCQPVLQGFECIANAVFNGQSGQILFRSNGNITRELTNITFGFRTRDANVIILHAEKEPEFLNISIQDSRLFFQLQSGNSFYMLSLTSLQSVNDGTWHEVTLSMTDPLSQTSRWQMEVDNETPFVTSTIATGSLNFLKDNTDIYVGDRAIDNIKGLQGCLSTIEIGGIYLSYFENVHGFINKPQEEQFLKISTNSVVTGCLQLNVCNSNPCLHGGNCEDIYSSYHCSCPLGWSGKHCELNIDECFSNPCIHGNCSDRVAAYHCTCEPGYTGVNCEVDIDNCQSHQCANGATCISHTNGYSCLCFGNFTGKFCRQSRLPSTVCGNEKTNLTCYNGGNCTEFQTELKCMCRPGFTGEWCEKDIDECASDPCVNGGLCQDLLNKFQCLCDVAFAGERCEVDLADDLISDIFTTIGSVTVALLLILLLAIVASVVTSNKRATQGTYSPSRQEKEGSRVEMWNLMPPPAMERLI
# Variants of: B1
# Details: with crum1_human CRB1, P82279
row,Variant,effect of a mutation on the interaction
1,F318W,decreasing interaction strength
